According to paper PMC4036194:

Experiments:
[1] = biological target: Full-length C24A β3 mutant with a carboxyl-terminal Myc epitope tag; test: atomic force microscopy (AFM) imaging; Myc-tagged β3 (wild type or C24A) immunoisolated from tsA 201 detergent extract, diluted to ~40 pM, adsorbed to mica, imaged in air in tapping mode; molecular volumes of particles
[2] = biological target: mEos2-labeled acid-sensing ion channel hASIC (UniProt P78348); test: fluorescence photoactivated localization microscopy (FPALM) with pair correlation analysis; mEos2 fusions on the plasma membrane of fixed, transfected HEK293 cells; TIRF-PALM; 30 regions of 1 μm^2 on five cells; proteins per cluster

mEos2-labeled acid-sensing ion channel hASIC (from UniProt P78348 1-528) (natural protein), sequence (P78348 whole entry): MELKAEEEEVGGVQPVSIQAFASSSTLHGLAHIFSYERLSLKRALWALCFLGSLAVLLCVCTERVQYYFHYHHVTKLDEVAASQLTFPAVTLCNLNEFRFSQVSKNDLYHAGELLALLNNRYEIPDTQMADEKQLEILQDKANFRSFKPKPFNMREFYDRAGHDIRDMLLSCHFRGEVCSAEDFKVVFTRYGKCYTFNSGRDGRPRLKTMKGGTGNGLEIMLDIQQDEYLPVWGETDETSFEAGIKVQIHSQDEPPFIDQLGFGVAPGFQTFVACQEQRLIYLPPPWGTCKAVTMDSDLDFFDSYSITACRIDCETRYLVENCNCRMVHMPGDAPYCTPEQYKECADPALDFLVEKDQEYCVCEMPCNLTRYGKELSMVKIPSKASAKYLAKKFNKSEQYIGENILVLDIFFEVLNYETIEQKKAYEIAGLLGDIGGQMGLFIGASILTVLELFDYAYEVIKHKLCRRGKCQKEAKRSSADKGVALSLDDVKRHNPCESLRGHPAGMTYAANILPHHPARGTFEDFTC

Row | stoichiometry N [1] | stoichiometry N [2] | Substance
1 | 2 | – | Full-length C24A β3 mutant with a carboxyl-terminal Myc epitope tag (natural protein)
2 | – | 3 | mEos2-labeled acid-sensing ion channel hASIC (from UniProt P78348 1-528) (natural protein)
